From US20240398804A1 (Dana-Farber, published 2024)

Key:
FYN = FYN (UniProt P06241 2-537, limits assumed); test: YAP1 immunoprecipitation from colon cancer cell lysate (SW480), immunoblot
Experimental: (§1) The indicated colon cancer cell lines were infected with shRNAs targeting YES1 and proliferation (A) or anchorage independent growth (B) was assessed. The results were normalized to cells infected with a control shRNA targeting LacZ. (C) Subcutaneous HCT116 tumors expressing a doxycycline inducible YES1 shRNA were implanted into the cecum of nude mice and after 48 h were treated or not with doxycycline. Tumors were extracted three weeks post doxycycline treatment. (D) YES1 protein levels of tumors in (C). (E) YAP1 was immunoprecipitated from SW480 lystaes and following immunobloting the membrane was stained with the indicated antibodies. […] Following V5 IP the membrane was blotted with a phosphotyrosine antibody. […] (H) Proliferation or anchorage independent growth (I) of Hutu80 cell lines expressing YAP1 Y357F and infected with shRNAs targeting YAP1. (J) YAP1 protein levels of cells in (H) and (I).

[1] = molecular target: SRC (endogenous, colon cancer cell lines) (UniProt P12931 2-536); test: as above
Experimental: as §1

Sequence of FYN (P06241 2-537 limits assumed): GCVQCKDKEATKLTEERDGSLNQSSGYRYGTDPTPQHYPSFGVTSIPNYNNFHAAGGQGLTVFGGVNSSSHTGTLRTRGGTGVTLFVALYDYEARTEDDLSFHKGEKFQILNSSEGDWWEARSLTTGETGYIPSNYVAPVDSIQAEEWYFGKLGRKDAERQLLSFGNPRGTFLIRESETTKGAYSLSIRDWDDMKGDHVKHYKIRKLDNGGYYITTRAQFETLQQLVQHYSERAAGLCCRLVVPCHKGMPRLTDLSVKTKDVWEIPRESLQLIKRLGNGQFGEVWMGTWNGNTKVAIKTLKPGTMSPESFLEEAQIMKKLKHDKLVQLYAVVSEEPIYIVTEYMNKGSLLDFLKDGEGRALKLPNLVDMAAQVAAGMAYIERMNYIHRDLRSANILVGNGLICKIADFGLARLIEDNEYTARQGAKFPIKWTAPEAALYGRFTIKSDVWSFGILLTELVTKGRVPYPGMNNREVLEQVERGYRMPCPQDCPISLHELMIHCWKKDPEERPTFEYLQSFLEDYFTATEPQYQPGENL

B1: YAP1 (65 kd Yes-associated protein) (other, UniProt P46937-3 1-454, looked up)
chain: MDPGQQPPPQPAPQGQGQPPSQPPQGQGPPSGPGQPAPAATQAAPQAPPAGHQIVHVRGDSETDLEALFNAVMNPKTANVPQTVPMRLRKLPDSFFKPPEPKSHSRQASTDAGTAGALTPQHVRAHSSPASLQLGAVSPGTLTPTGVVSGPAATPTAQHLRQSSFEIPDDVPLPAGWEMAKTSSGQRYFLNHIDQTTTWQDPRKAMLSQMNVTAPTSPPVQQNMMNSASAMNQRISQSAPVKQPPPLAPQSPQGGVMGGSNSNQQQQMRLQQLQMEKERLRLKQQELLRQVRPQELALRSQLPTLEQDGGTQNPVSSPGMSQELRTMTTNSSDPFLNSGTYHSRDESTDSGLSMSSYSVPRTPDDFLNSVDEMDTGDTINQSTLPSQQNRFPDYLEAIPGTNVDLGTLEGDGMNIEGEELMPSLQEALSSDILNDMESVLAATKLDKESFLTWL
notes: Endogenous protein in the co-immunoprecipitations from colon cancer cell lysates; also called WT YAP1
B1: no binding (FYN); no binding [1].
